Molecular target: SARS-CoV-2 spike protein RBD (SARS-CoV-2, UniProt P0DTC2 319-541)
Test: multiplex sVNT, RBD-coated beads, PE-hACE2 as competitor

B1: SS6V11-E7 (antibody, V domains shown)
VH: QVQLQESGPGLVKPSETLSLTCTVSGGFIGPHYWSWVRQPPGKGLEWIGYIYISGSTNYNPSLKSRLTISVDMSKSQFSLTLSSATAADTAVYYCARGGGYLETGPFEYWGQGTLVTVSS
VL: DIVMTQSPLSLPVTPGEPASISCRSSQSLLQNNGYNYLAWYLQKPGQSPQLLIYLSSTRASGVPDRFSGSGSGTDFTLKISRVEAEDVGVYYCMQSLQIPGTFGQGTRLEIK
B1: binds.
